Measurements: patent publication US6461867

Target: SEV-9 peptide (Sendai virus nucleoprotein 324-332) (Sendai virus)

B1: soluble H-2K^b (K^bsol), empty heterodimer of truncated K^b heavy chain and murine β-2 microglobulin (other)
alpha: GPHSLRYFVTAVSRPGLGEPRYMEVGYVDDTEFVRFDSDAENPRYEPRARWMEQEGPEYWERETQKAKGNEQSFRVDLRTLLGYYNQSKGGSHTIQVISGCEVGSDGRLLRGYQQYAYDGCDYIALNEDLKTWTAADMAALITKHKWEQAGEAERLRAYLEGTCVEWLRRYLKNGNATLLRTDSPKAHVTHHSRPEDKVTLRCWALGFYPADITLTWQLNGEELIQDMELVETRPAGDGTFQKWASVVVPLGKEQYYTCHVYHQGLPEPLTLRW
beta: IQKTPQIQVYSRHPPENGKPNILNCYVTQFHPPHIEIQMLKNGKKIPKVEMSDMSFSKDWSFYILAHTEFTPTETDTYACRVKHASMAEPKTVYWDRDM
Work on B1 yielded a Kd of 2.7 nM.
